Test results published in patent US20230322927A1 (Regeneron, published 2023).
Substitutions are numbered along the chain they refer to.

B1: REGN6322 (bispecific antibody, human IgG4 S228P, kappa)
heavy 1: EVQLVESGGGLVKPGGSLRLSCTASGFSFRDAWMTWVRQVPGKGLEWVGRIRNKIDGGTTDYNTPVKDRFTISRDDSKNTLYLQMNSLKTEDTAVYYCTTDIWNYVLFYYYGLDVWGQGTTVTVSSASTKGPSVFPLAPCSRSTSESTAALGCLVKDYFPEPVTVSWNSGALTSGVHTFPAVLQSSGLYSLSSVVTVPSSSLGTKTYTCNVDHKPSNTKVDKRVESKYGPPCPPCPAPPVAGPSVFLFPPKPKDTLMISRTPEVTCVVVDVSQEDPEVQFNWYVDGVEVHNAKTKPREEQFNSTYRVVSVLTVLHQDWLNGKEYKCKVSNKGLPSSIEKTISKAKGQPREPQVYTLPPSQEEMTKNQVSLTCLVKGFYPSDIAVEWESNGQPENNYKTTPPVLDSDGSFFLYSRLTVDKSRWQEGNVFSCSVMHEALHNHYTQKSLSLSLGK
heavy 2: QVQLQESGPGLVKPSETLSLTCTVSGGSISSYYWSWIRQPPGKGLEWIGYIYYSGITHYNPSLKSRVTISVDTSKIQFSLKLSSVTAADTAVYYCARWGVRRDYYYYGMDVWGQGTTVTVSSASTKGPSVFPLAPCSRSTSESTAALGCLVKDYFPEPVTVSWNSGALTSGVHTFPAVLQSSGLYSLSSVVTVPSSSLGTKTYTCNVDHKPSNTKVDKRVESKYGPPCPPCPAPPVAGPSVFLFPPKPKDTLMISRTPEVTCVVVDVSQEDPEVQFNWYVDGVEVHNAKTKPREEQFNSTYRVVSVLTVLHQDWLNGKEYKCKVSNKGLPSSIEKTISKAKGQPREPQVYTLPPSQEEMTKNQVSLTCLVKGFYPSDIAVEWESNGQPENNYKTTPPVLDSDGSFFLYSRLTVDKSRWQEGNVFSCSVMHEALHNRFTQKSLSLSPGK
light: not shown
notes: EGFR arm from mAb35193P2, CD28 arm from mAb14226; also called bsAb6322; EGFRxCD28
B2: REGN7075 (bispecific antibody, human IgG4 S228P, kappa)
heavy 1: QVQLQESGPGLVKPSETLSLTCTVSGDSIITFYWSWIRQPPGRGLEWIGYIYYSGITNYNPSLKSRVTISVDTSKNQVSLKLSSVTAADTAVYYCARVSEDSYFHYGMDVWGQGTTVTVSSASTKGPSVFPLAPCSRSTSESTAALGCLVKDYFPEPVTVSWNSGALTSGVHTFPAVLQSSGLYSLSSVVTVPSSSLGTKTYTCNVDHKPSNTKVDKRVESKYGPPCPPCPAPPVAGPSVFLFPPKPKDTLMISRTPEVTCVVVDVSQEDPEVQFNWYVDGVEVHNAKTKPREEQFNSTYRVVSVLTVLHQDWLNGKEYKCKVSNKGLPSSIEKTISKAKGQPREPQVYTLPPSQEEMTKNQVSLTCLVKGFYPSDIAVEWESNGQPENNYKTTPPVLDSDGSFFLYSRLTVDKSRWQEGNVFSCSVMHEALHNHYTQKSLSLSLGK
heavy 2: B1 heavy 2
light: not shown
notes: EGFR arm from mAb12999P2, CD28 arm from mAb14226; also called bsAb7075; H4sH24623D
B3: REGN6321 (bispecific antibody, human IgG4 S228P, kappa)
heavy 1: EVQLVESGGGLVRPGGSLRLSCTASGFTFSTFIMFWVRQAPGKGLEYVSSISSNGGTIYYADSVKGRFTISRDNSKNTLYLQMGSLRAEDMAVYYCTRGGDFWSGYYPFDYWGQGTLVTVSSASTKGPSVFPLAPCSRSTSESTAALGCLVKDYFPEPVTVSWNSGALTSGVHTFPAVLQSSGLYSLSSVVTVPSSSLGTKTYTCNVDHKPSNTKVDKRVESKYGPPCPPCPAPPVAGPSVFLFPPKPKDTLMISRTPEVTCVVVDVSQEDPEVQFNWYVDGVEVHNAKTKPREEQFNSTYRVVSVLTVLHQDWLNGKEYKCKVSNKGLPSSIEKTISKAKGQPREPQVYTLPPSQEEMTKNQVSLTCLVKGFYPSDIAVEWESNGQPENNYKTTPPVLDSDGSFFLYSRLTVDKSRWQEGNVFSCSVMHEALHNHYTQKSLSLSLGK
heavy 2: B1 heavy 2
light: not shown
notes: also called bsAb6321; EGFRxCD28
B4: mAb35193P2 (antibody, V domains shown)
VH: EVQLVESGGGLVKPGGSLRLSCTASGFSFRDAWMTWVRQVPGKGLEWVGRIRNKIDGGTTDYNTPVKDRFTISRDDSKNTLYLQMNSLKTEDTAVYYCTTDIWNYVLFYYYGLDVWGQGTTVTVSS
VL: not shown
B5: mAb13006P2 (antibody, V domains shown)
VH: QVQLQESGPGLVKPSETLSLTCTVSDDSIISYYWSWIRQPPGKGLEWIGYIYYSGRTNYNPSLKSRVTISVDTSKNQVSLKLNSVIAADTAVYYCARVSEDSYYHYGMDVWGQGTTVTVSS
VL: not shown
B6: mAb12999P2 (antibody, V domains shown)
VH: B5 VH with D26G, S31T, Y32F, K43R, R56I, N83S, I86T, Y104F
VL: not shown

Columns and labels:
[1] = biological target: T1, human EGFR on cells (human, UniProt P00533 25-1210); test: cell-based or functional assay
[2] = biological target: human CD28 on cells (human, UniProt P10747 19-220); test: cell-based or functional assay
[3] = biological target: T1, human EGFR on cells; test: flow cytometry titration on A375 cells
Method: (§1) After incubation, the cells were washed twice with cold PBS containing 1% filtered FBS and a Fluorophore-conjugated anti-human secondary antibody was added to the cells and incubated for an additional 30 minutes. Live/dead dye was added to Human and Cynomolgus T cells incubations. Wells containing no antibody or secondary only were used as a control.
(§2) After incubation with EGFR expressing cells, cells were washed, re-suspended in 200 μL cold PBS containing 1% filtered FBS and analyzed by flow cytometry on a BD FACS Canto II.

[4] = biological target: T1, human EGFR on cells; test: flow cytometry titration on PEO1 cells
Method: as §1, §2

[5] = biological target: T1, human EGFR on cells; test: flow cytometry titration on 22RV1 cells
Method: as §1, §2

[6] = biological target: T1, human EGFR on cells; test: flow cytometry titration on CASKI cells
[7] = biological target: T2, hEGFR(ECD).CPGG.MMH6 (REGN355) (human, UniProt P00533 25-647); test: SPR (Biacore 4000) at 25 C; antibody captured on anti-human Fc, hEGFR.mmH injected
T2 construct: Soluble extracellular domain with a myc-myc-hexahistidine tag; also called hEGFR.mmH; hEGFR.mmh
Method: Association was monitored for 5 minutes, and the dissociation of hEGFR.mmH in HBS-EP running buffer was monitored for 10 minutes. All of the binding kinetics experiments were performed at 25° C. Kinetic association (kₐ) and dissociation (kd) rate constants were determined by fitting the real-time sensorgrams to a 1:1 binding model using Scrubber 2.0c curve fitting software.

[8] = biological target: T3, hCD28.mFc (REGN2012) (human, UniProt P10747 19-152, limits assumed); test: SPR (Biacore T-200) at 25 C; hCD28.mFc captured on anti-mouse Fc, antibody injected
T3 construct: also called Human CD28-mFc; hCD28 with a C-terminal mouse Fc tag; not shown: C-terminal mouse Fc tag

[9] = biological target: T2, hEGFR(ECD).CPGG.MMH6 (REGN355); test: SPR (Biacore) at 25 C; antibody captured on anti-hFc, hEGFR.mmH injected
[10] = biological target: T2, hEGFR(ECD).CPGG.MMH6 (REGN355); test: SPR (Biacore) at 37 C; antibody captured on anti-hFc, hEGFR.mmH injected
Method: SPR Kinetics Method: Kinetics binding parameters were determined via surface plasmon resonance (SPR) using a T-200 instrument and CM5 sensors (GE Healthcare). Double-referenced sensorgrams were globally fit to a 1:1 binding model using Scrubber (BioLogics Software). The dissociation rate constant (kd) was determined by fitting the change in the binding response during the dissociation phase, and the association rate constant (ka) was determined by fitting analyte binding at different concentrations. The KD was calculated from the ratio of the kd and ka.
A six-point, three-fold dilution series of hEGFR.mmH starting at 30 nM was injected over this surface at a flow rate of 50 uL/min for 5 minutes. Surface was regenerated with a 10 second pulse of 20 mM H3PO4. Dissociation was measured for 10 minutes. Sensorgrams were processed and fit as described above.

[11] = biological target: T3, hCD28.mFc (REGN2012); test: SPR (Biacore) at 25 C; hCD28.mFc captured on anti-mFc, antibody injected
[12] = biological target: T3, hCD28.mFc (REGN2012); test: SPR (Biacore) at 37 C; hCD28.mFc captured on anti-mFc, antibody injected
Method: SPR Kinetics Method: Kinetics binding parameters were determined via surface plasmon resonance (SPR) using a T-200 instrument and CM5 sensors (GE Healthcare). Double-referenced sensorgrams were globally fit to a 1:1 binding model using Scrubber (BioLogics Software). The dissociation rate constant (kd) was determined by fitting the change in the binding response during the dissociation phase, and the association rate constant (ka) was determined by fitting analyte binding at different concentrations. The KD was calculated from the ratio of the kd and ka. The dissociative half-life (t½) was calculated as In2/kd and converted to minutes.
CD28 Capture Method Specifics: An anti-mFc polyclonal Ab (GE) was coupled to a CM5 sensor surface using traditional EDC/NHS coupling chemistry. ˜30RUs of hCD28.mFc were captured on this surface. […] Dissociation was measured for 5 minutes. Surface was regenerated with a 40 second injection of 10 mM glycine, pH 1.5. Sensorgrams were processed and fit as described above.

Row | Binder | EC50 [M] of increase of BaF3/hEGFR proliferation in presence of 0.5 nM hTGFβ [1] [M] | IL-2 Release MAX (pg/mL), human CD3+ T cells + NCI-H292 cells, with 20 nM IsoC-1 [2] [pg/mL] | IL-2 Release MAX (pg/mL), human CD3+ T cells + NCI-H292 cells, with 20 nM cemiplimab [2] [pg/mL] | Proliferation MAX (CPM), human CD3+ T cells + NCI-H292 cells, with 20 nM IsoC-1 [2] [CPM] | Proliferation MAX (CPM), human CD3+ T cells + NCI-H292 cells, with 20 nM cemiplimab [2] [CPM] | EC50 [3] [nM] | EC50 [4] [nM] | EC50 [6] [nM] | Kd [7] [nM] | koff [7] [s⁻¹] | kon [7] [M⁻¹ s⁻¹] | t½ [7] [min] | Kd [8] [nM] | koff [8] [s⁻¹] | kon [8] [M⁻¹ s⁻¹] | t½ [8] [min] | Inhibition [%] of BaF3/hEGFR proliferation in presence of 0.5 nM hEGF [1] [%] | Inhibition [%] of BaF3/hEGFR proliferation in presence of 0.5 nM hTGFβ [1] [%] | IC50 [M] of inhibition of BaF3/hEGFR proliferation in presence of 0.5 nM hEGF [1] [M] | IC50 [M] of inhibition of BaF3/hEGFR proliferation in presence of 0.5 nM hTGFβ [1] [M] | other results
1 | B1 | 3.67e-09 | 8.02 | 21.8 | 1860 | 2380 | 4.64 | 5.77 | 24.4 | 9.38 | 0.00146 | 156000 | 7.9 | 10.3 | 0.00268 | 261000 | 4.3 | – | – | – | – | EC50 [5]: 9.58 nM
2 | B2 | – | 12.7 | 27.2 | 1880 | 3250 | – | 1.22 | 2.05 | – | – | – | – | – | – | – | – | -6.8 | 11.2 | – | – | Proliferation EC50 [M], human CD3+ T cells + NCI-H292 cells, with 20 nM IsoC-1 [2]: 3.92e-11 M; Proliferation EC50 [M], human CD3+ T cells + NCI-H292 cells, with 20 nM cemiplimab [2]: 2.16e-11 M; Kd [9]: 2.8 nM; koff [9]: 0.000433 s⁻¹; kon [9]: 154000 M⁻¹ s⁻¹; t½ [9]: 26.7 min; Kd [10]: 0.933 nM; koff [10]: 0.000412 s⁻¹; kon [10]: 441000 M⁻¹ s⁻¹; Kd [11]: 10.7 nM; koff [11]: 0.00314 s⁻¹; kon [11]: 294000 M⁻¹ s⁻¹; t½ [11]: 3.7 min; Kd [12]: 51.7 nM; koff [12]: 0.0131 s⁻¹; kon [12]: 254000 M⁻¹ s⁻¹; t½ [12]: 0.9 min
3 | B3 | – | – | – | – | – | 5.42 | – | 16.9 | 0.634 | 4.63e-05 | 73000 | 249 | 10.8 | 0.00281 | 259000 | 4.1 | – | – | – | – | –
4 | B4 | 9.14e-10 | – | – | – | – | – | – | – | – | – | – | – | – | – | – | – | 29.6 | – | 2.55e-09 | – | –
5 | B5 | – | – | – | – | – | – | – | – | – | – | – | – | – | – | – | – | 93.2 | 97.2 | – | 6.55e-09 | –
6 | B6 | – | – | – | – | – | – | – | – | – | – | – | – | – | – | – | – | 91.8 | 95.9 | 1.98e-08 | 7.79e-09 | –
